The results in this text go back to the supplement of paper PMC9170038.

The subject of the data set is MS2 coat protein. Description: apparent KD of MS2 coat protein; designed switch direction (-1 OFF switch, 1 ON switch): 1; higher = weaker reporter binding. The method in brief:
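Each step of the titration lasted 0.8–1.5 h at the lowest concentration and 10–20 min at the highest. The protein, SNAP-549-labelled MS2 coat protein, went from 0.7 or 1.5 nM doubling to 3 µM over RNA switches transcribed on Illumina chips by stalled E. coli RNA polymerase. Normalised cluster fluorescence was curve-fitted, and the per-design median over clusters is given as apparent KD.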

Setting [1] is: Eterna round: R95, input ligand: FMN 200 uM.
The mark [2] stands for this setting: Eterna round: R95, input ligand: microRNA oligo, concentration not stated.
The mark [3] stands for this setting: Eterna round: R95, input ligand: none.
The mark [4] stands for this setting: input ligand: microRNA oligo, concentration not stated.

With “UCUUGGUUUUUGCUCGUUUUUUGUGUUGAACAUGAGGAUCACCCAUGUAUUGUACGGUCCGGUUUAGUAGUGGUCCA [JMF 44] (puzzle: Sensor for hsa-mir-208a)”, the “apparent KD of MS2 coat protein” value came out at 118 nM under setting [1], 92.8 nM under setting [2] and 144 nM under setting [3].

With “UGAACCUUCACAGGAUAUCAUGCGAAAAUUGCGUGAGAAGGGUGGAUGUGGCGUUCAAAGAUGCACAUGAGGAUCACCCAUGUA [SameState NG1 #49] (Eterna round: R96, puzzle: Same State NG 1)”, the “apparent KD of MS2 coat protein” value is 162 nM (input ligand: FMN 200 uM), 113 nM under setting [4] and 191 nM (input ligand: none).

On to “UGAAUAAUGAUAGGAUAUACAUGAGGAAUCCUCGUAGAAGGAUCAUGACAUGAGGAUCACCCAUGUAGCGCUCAGAAGAGCGCA [Mat - Same State NG 1 - JL mod - D51] (Eterna round: R96, puzzle: Same State NG 1)”, for which the “apparent KD of MS2 coat protein” value reads like this: (input ligand: FMN 200 uM) 160 nM; under setting [4], 76.7 nM; (input ligand: none) 191 nM.

Regarding “UGAAUAGUGAUAGGAUAUACAUGAGGAAUCCUCGUAGAAGGAUCACGACAUGAGGAUCACCCAUGUAGCCGUCGAAAGACGGCA [Mat - Same State NG 1 - JL mod - D61] (Eterna round: R96, puzzle: Same State NG 1)”, the “apparent KD of MS2 coat protein” value by setting is: (input ligand: FMN 200 uM) 924 nM; under setting [4], 86.1 nM; (input ligand: none) 192 nM.

With “UGAAUAGUGAUAGGAUAUACAUGAGGAAUCCUCGUAGAAGGAUCAUAACAUGAGGAUCACCCAUGUAGCCGUCAGAAGACGGCA [Mat - Same State NG 1 - JL mod - D57] (Eterna round: R96, puzzle: Same State NG 1)”, the “apparent KD of MS2 coat protein” value reads like this: (input ligand: FMN 200 uM) 94.6 nM; under setting [4], 284 nM; (input ligand: none) 178 nM.

As to “UGAAUAGUUACAGGAUAUCAUGCGAAAAUUGCGUGAGAAGGGUGGGUGUUGUGCUCAAAGUGCUACAUGAGGAUCACCCAUGUU [SameState NG1 #40] (Eterna round: R96, puzzle: Same State NG 1)”, the “apparent KD of MS2 coat protein” value is 1720 nM (input ligand: FMN 200 uM), 99.3 nM under setting [4] and 497 nM (input ligand: none).

For “UGAAUAGUUACAGGAUAUGAGCCGAAAAUUGGGUCAGAAGGGUGGGUGUUGUGCGCUAUGUGCUACAUGAGGAUCACCCAUGUU [SameState NG1 #35] (Eterna round: R96, puzzle: Same State NG 1)”, the “apparent KD of MS2 coat protein” value is, setting by setting: (input ligand: FMN 200 uM) 1210 nM; under setting [4], 23.3 nM; (input ligand: none) 208 nM.

In the case of “UGAAUAGUUACAGGAUAUGAGCCGUAAAUUGGGUCAGAAGGGUGGGUGUUUUGCGCUGUGUGUUACAUGAGGAUCACCCAUGUU [SameState NG1 #32] (Eterna round: R96, puzzle: Same State NG 1)”, the “apparent KD of MS2 coat protein” value reads like this: (input ligand: FMN 200 uM) 206 nM; under setting [4], 86.7 nM; (input ligand: none) 137 nM.

Regarding “UGACACACGGCAGGAUAUCGAUAGCAAAGCUAUCGAGAAGGGCCUCAUGUCGUGGAAACGUGACAUGAGGAUCACCCAUGUUGC [Omei SS(NG)1 Cv11] (Eterna round: R96, puzzle: Same State NG 1)”, the “apparent KD of MS2 coat protein” value amounted to 280 nM (input ligand: FMN 200 uM), 8.42 nM under setting [4] and 51.4 nM (input ligand: none).

For the sequence “UGACACACGGCAGGAUAUCGAUUGCAAAGCAAUCGAGAAGGGCCUCAUGUCGUGGAAACGUGACAUGAGGAUCACCCAUGUCGC [Omei SS(NG)1 Cv13] (Eterna round: R96, puzzle: Same State NG 1)”, the “apparent KD of MS2 coat protein” value is, setting by setting: (input ligand: FMN 200 uM) 53.1 nM; under setting [4], 11.6 nM; (input ligand: none) 24 nM.

In the case of “UGACACACGGCAGGAUAUCGUUAGCAAAGCUAACGAGAAGGGCCUCAUGUCGUGGAAACGUGACAUGAGGAUCACCCAUGUCGC [Omei SS(NG)1 Cv9] (Eterna round: R96, puzzle: Same State NG 1)”, the “apparent KD of MS2 coat protein” value is, setting by setting: (input ligand: FMN 200 uM) 272 nM; under setting [4], 27.3 nM; (input ligand: none) 58.5 nM.

For the sequence “UGACACACGGCAGGAUAUGCUUAGCAAAGCUAAGCAGAAGGGCCUCAUGUCGUGGAAACGUGACAUGAGGAUCACCCAUGUCGC [Omei SS(NG)1 Cv4] (Eterna round: R96, puzzle: Same State NG 1)”, the “apparent KD of MS2 coat protein” value was found to be 122 nM (input ligand: FMN 200 uM), 6.01 nM under setting [4] and 17.7 nM (input ligand: none).

Turning to “UGACACACGGCAGGAUAUGCUUAGCAAAGCUAAGCAGAAGGGCCUCAUGUCGUGGAAACGUGACAUGAGGAUCACCCAUGUUGC [Omei SS(NG)1 Cv2] (Eterna round: R96, puzzle: Same State NG 1)”, the “apparent KD of MS2 coat protein” value worked out at 306 nM (input ligand: FMN 200 uM), 46.8 nM under setting [4] and 57.9 nM (input ligand: none).

With “UGACACACGGCAGGAUAUGCUUAGCAAAGCUAAGCAGAAGGGCCUCAUGUCGUGGAAAUGUGACAUGAGGAUCACCCAUGUUGC [Omei SS(NG)1 Cv6] (Eterna round: R96, puzzle: Same State NG 1)”, the “apparent KD of MS2 coat protein” value worked out at 39.3 nM (input ligand: FMN 200 uM), 20.7 nM under setting [4] and 92.2 nM (input ligand: none).

Consider “UGAGCCGGCACUGAGGAUAUUCAUAUUAAAACAUGAGGAUCACCCAUGUAGGCCAGAAGGCCUUGGGAGAAGGCAGGUCGGCUCU [Mat - Same State 2 - Mod of UCT - D60] (puzzle: Same State 2)”, for which the “apparent KD of MS2 coat protein” value under setting [1] was determined as 22.6 nM, the “apparent KD of MS2 coat protein” value under setting [2] is 185 nM and the “apparent KD of MS2 coat protein” value under setting [3] was found to be 334 nM.

Regarding “UGCAGCUACGUAGGAUAUCCGAAAGGAAGUGUAGGAGAAGGACGAGAGCCGCCUUACGUACAUGAGGAUCACCCAUGUAGUAGG [PowerStrip SSNG 1.22] (Eterna round: R96, puzzle: Same State NG 1)”, the “apparent KD of MS2 coat protein” value (input ligand: FMN 200 uM) turned out to be 13.7 nM, the “apparent KD of MS2 coat protein” value under setting [4] turned out to be 21.8 nM and the “apparent KD of MS2 coat protein” value (input ligand: none) came out at 25.9 nM.

As to “UGCAUACAUGAGGAUCACCCAUGUCAACGUAGUCGAGGAUAUGGGCAGCCGUGAGGCGAACCAGAAGGCGAAUUGU [JL-ss1-3.03 ViennaUCT mod] (puzzle: Same State 1)”, the “apparent KD of MS2 coat protein” value is 23.1 nM under setting [1], 52.7 nM under setting [2] and 115 nM under setting [3].

For “UGCCUGAGUCGAGGAUAUUAUGGAUCCUUUAAUACAUGAGGAUCACCCAUGUAAUUAAUUAUACAUGAGAAGGCGACUCAGGCU [SSNG2/11-A3] (Eterna round: R96, puzzle: Same State NG 2)”, the “apparent KD of MS2 coat protein” value under setting [4] turned out to be 58.9 nM.

As for “UGCUAUCGAAAACGAUAGCUAAAGUUUGUACAUGAGGAUCACCCAUGUUGUACAAGCUUUUUGCUCGUCUUAAAUAA [JL SD Zipper 16] (Eterna round: R96, puzzle: Sensor for hsa-mir-208a)”, the “apparent KD of MS2 coat protein” value is 67.1 nM (input ligand: FMN 200 uM), 15.2 nM under setting [4] and 62.4 nM (input ligand: none).

For “UGCUAUUGUAUAUUGGUGCAAGCUUUUUGACAUGAGGAUCACCCAUGUACUCGUCUUAUGUGCAGUCCGUAGACUGC [JL-shm-2.24 Brourd mod] (puzzle: Sensor for hsa-mir-208a)”, the “apparent KD of MS2 coat protein” value came to 47.8 nM under setting [1], 13.4 nM under setting [2] and 45.6 nM under setting [3].

With “UGCUUCAUGUAAGGAUAUGCAGCCGUUUCGGCUGCAGAAGGUACUAUAAUACAUGAGGAUCACCCAUGUCUCUCGCAUUGCGGG [salish99_SSng1_r04_302] (Eterna round: R96, puzzle: Same State NG 1)”, the “apparent KD of MS2 coat protein” value runs as follows: (input ligand: FMN 200 uM) 91 nM; under setting [4], 118 nM; (input ligand: none) 184 nM.

For “UGGAUCUAGGCUUGCCUGGGUCCAUGUUGACAUGAGGAUCACCCAUGUGUAUUUUUUUAGCUUUUUGUUUGUCAACU [JL A Humble Attempt mod 10] (puzzle: Sensor for hsa-mir-208a)”, the “apparent KD of MS2 coat protein” value by setting is: under setting [1], 26.2 nM; under setting [2], 13 nM; under setting [3], 25.5 nM.

With “UGGCAACAUGAGGAUCACCCAUGUCAAACUAAUCGAGGAUAUGGGAACUAACAACACAAACUAGAAGGCGAACUUG [Altered State 1-10 - Jieux - Same State 1] (puzzle: Same State 1)”, the “apparent KD of MS2 coat protein” value by setting is: under setting [1], 74.9 nM; under setting [2], 32 nM; under setting [3], 38.3 nM.

For “UGGCUCAGACGAGGAUAUACGUGGUCACAUGAGGAUCACCCAUGUCUCGAGCUUCGGCUCGAGGCGUAGAAGGCGUCUGAGCCU [SSNG2/6-A3] (Eterna round: R96, puzzle: Same State NG 2)”, the “apparent KD of MS2 coat protein” value runs as follows: (input ligand: FMN 200 uM) 112 nM; under setting [4], 133 nM; (input ligand: none) 151 nM.

Regarding “UGGCUCAGACGAGGAUAUAUGCGAUCACAUGAGGAUCACCCAUGUCUCGAGCUUCGGCUCGAGGCAUAGAAGGCGUCUGAGCCA [SSNG2/4-A2] (Eterna round: R96, puzzle: Same State NG 2)”, the “apparent KD of MS2 coat protein” value runs as follows: (input ligand: FMN 200 uM) 15.8 nM; under setting [4], 28 nM; (input ligand: none) 32.5 nM.

Turning to “UGGCUCAGACGAGGAUAUAUGCGAUCACAUGAGGAUCACCCAUGUCUCGAGCUUCGGCUCGAGGCAUAGAAGGUGUCUGAGCCU [SSNG2/4-C3] (Eterna round: R96, puzzle: Same State NG 2)”, the “apparent KD of MS2 coat protein” value was found to be 23.9 nM (input ligand: FMN 200 uM), 70.3 nM under setting [4] and 94.7 nM (input ligand: none).

Consider “UGGCUCAGACGAGGAUAUAUGUCUCGAGCUUCGGCUCGAGACAUGAGGAUCACCCAUGUAAUAACAUAGAAGGCGUCUGAGCCU [SSNG2/1-A3] (Eterna round: R96, puzzle: Same State NG 2)”, for which the “apparent KD of MS2 coat protein” value is, setting by setting: (input ligand: FMN 200 uM) 12.6 nM; under setting [4], 29 nM; (input ligand: none) 34.3 nM.
